Data reported in patent US20240424057A1 (CASE WESTERN RESERVE UNIVERSITY, published 2024).

Columns and labels:
[1] = target: T1, recombinant PTPRD-his protein, extracellular domain (Creative BioMart, PTPRD-36H) (Homo sapiens (Human), UniProt P23468 21-1265, biotinylated with EZ-Link-Sulfo-NHS-Biotin in the BLI assay); assay: bio-layer interferometry (Octet RED96), biotinylated PTPRD on SSA biosensors, asprosin 1.23-900 nM, 1:1 global fit
T1 construct: only the extracellular domain stood in the assay; Used in the co-immunoprecipitation and in BLI; also called rPTPRD-his; PTPRD-6his; not shown: 6xHis tag
T1 sequence: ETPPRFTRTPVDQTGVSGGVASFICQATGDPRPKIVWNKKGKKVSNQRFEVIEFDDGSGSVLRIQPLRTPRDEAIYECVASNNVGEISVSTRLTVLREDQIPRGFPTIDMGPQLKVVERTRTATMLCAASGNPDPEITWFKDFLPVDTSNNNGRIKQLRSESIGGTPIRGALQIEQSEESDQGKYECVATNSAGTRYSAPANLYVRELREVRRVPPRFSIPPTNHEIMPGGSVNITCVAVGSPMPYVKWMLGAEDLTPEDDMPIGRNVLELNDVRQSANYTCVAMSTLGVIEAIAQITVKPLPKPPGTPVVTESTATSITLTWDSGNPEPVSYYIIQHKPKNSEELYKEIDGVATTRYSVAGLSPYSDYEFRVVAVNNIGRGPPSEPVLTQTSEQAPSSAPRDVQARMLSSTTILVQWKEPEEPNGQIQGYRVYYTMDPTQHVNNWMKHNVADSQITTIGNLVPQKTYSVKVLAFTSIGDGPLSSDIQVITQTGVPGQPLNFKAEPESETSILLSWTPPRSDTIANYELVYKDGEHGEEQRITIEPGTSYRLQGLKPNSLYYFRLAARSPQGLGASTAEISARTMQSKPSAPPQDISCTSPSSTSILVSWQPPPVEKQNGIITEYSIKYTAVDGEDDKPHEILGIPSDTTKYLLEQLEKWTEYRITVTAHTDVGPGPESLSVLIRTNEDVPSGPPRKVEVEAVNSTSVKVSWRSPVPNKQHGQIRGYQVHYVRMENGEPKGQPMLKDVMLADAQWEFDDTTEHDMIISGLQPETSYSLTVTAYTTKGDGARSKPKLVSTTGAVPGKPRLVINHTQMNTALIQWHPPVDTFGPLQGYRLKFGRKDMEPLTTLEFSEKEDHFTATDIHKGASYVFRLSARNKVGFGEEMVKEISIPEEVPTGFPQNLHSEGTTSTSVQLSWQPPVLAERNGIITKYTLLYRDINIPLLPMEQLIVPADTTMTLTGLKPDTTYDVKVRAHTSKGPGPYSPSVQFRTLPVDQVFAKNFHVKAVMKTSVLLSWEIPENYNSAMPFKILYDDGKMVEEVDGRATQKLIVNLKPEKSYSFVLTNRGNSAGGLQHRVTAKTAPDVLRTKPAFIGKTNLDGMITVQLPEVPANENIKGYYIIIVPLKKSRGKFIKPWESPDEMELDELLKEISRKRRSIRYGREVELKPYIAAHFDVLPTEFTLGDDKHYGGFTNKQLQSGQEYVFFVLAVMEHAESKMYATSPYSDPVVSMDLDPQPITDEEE
Procedure: (§1) Binding affinity of asprosin to PTPRD was measured on Pall ForteBio's Octet RED96 system. The PTPRD protein (Creative BioMart, PTPRD-36H) was labeled with Biotin using EZ-Link-Sulfo-NHS-Biotin (ThermoFisher Scientific, 21217) and desalted by Zeba™ Spin Desalting Columns. The biotin-labeled PTPRD (20 μg/ml) was loaded on the super streptavidin (SSA) biosensors for 300 seconds. Following 20 seconds of baseline in kinetics buffer, the loaded biosensors were dipped into a series of 3-fold diluted human asprosin (1.23-900 nM) for 300 seconds to record association kinetics and then dipped into a kinetic buffer for 600 seconds to record dissociation kinetics. Kinetic buffer without asprosin was set to correct the background. For fitting of KD value, ForteBio's data analysis software was used to fit the curve by a 1:1 binding model and the global fitting method was applied.

[2] = target: T2, PTPRD extracellular domain, His-tagged (Acro Biosystems, PTD-H52H9) (Homo sapiens (Human), UniProt P23468 21-1265); assay: microscale thermophoresis, fluorescently labelled PTPRD, unlabelled asprosin titrated
T2 construct: only the extracellular domain stood in the assay; also called rPTPRD; rPTPRD-LBD; not shown: His tag (labelled with the His-Tag Labeling Kit RED-tris-NTA)
T2 sequence: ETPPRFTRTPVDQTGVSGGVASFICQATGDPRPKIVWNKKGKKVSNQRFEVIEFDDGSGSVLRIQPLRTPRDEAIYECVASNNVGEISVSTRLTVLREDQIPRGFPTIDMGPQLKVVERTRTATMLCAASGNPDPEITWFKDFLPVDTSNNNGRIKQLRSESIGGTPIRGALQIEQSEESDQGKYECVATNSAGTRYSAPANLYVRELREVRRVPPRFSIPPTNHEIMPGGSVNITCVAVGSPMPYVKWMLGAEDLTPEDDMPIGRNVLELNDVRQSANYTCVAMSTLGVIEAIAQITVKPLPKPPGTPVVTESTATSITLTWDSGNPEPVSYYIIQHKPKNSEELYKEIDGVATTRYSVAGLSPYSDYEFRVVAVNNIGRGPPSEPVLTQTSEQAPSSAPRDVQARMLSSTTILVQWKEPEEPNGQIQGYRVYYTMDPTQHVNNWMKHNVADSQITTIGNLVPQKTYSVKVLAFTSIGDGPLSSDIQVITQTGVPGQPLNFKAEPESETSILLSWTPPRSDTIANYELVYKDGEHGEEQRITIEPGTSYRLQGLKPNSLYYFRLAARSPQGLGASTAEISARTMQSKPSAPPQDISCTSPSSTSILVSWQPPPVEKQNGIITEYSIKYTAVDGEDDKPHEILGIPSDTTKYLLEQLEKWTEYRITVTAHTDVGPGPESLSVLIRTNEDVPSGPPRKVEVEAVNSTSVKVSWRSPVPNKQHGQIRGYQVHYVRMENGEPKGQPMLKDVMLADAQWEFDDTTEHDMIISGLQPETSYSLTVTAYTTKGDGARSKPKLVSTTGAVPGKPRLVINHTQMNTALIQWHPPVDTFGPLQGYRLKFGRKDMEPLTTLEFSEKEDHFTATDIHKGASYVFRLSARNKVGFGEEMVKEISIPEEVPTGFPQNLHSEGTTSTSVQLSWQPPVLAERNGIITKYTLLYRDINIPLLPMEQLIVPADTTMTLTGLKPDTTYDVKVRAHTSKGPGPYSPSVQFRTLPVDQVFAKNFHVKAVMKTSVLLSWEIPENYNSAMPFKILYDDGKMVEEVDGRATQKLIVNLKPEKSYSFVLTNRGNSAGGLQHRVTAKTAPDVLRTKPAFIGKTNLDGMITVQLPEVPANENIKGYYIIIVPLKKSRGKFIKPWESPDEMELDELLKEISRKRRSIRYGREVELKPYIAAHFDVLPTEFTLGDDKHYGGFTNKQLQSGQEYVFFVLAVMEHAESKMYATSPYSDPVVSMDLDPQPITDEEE
Procedure: The microscale thermophoresis (MST) assay was performed with the Monolith NT.115 from NanoTemper Technologies. PTPRD (Acro Biosystems, PTD-H52H9) was fluorescently labeled according to the manufacturer's protocol (His-Tag Labeling Kit RED-tris-NTA, NanoTemper). A solution of unlabeled asprosin was serially diluted according to the manufacturer's protocol. After labeled PTPRD and unlabeled asprosin were mixed and incubated at room temperature for 30 minutes, samples were loaded into glass capillaries (Monolith NT.115 Capillaries, NanoTemper). Measurements were carried out according to manufacturer's protocol: 40% power and 40% MST power. Assays were repeated three times and KD's were calculated using the NanoTemper analysis software.

[3] = target: T1, recombinant PTPRD-his protein, …; assay: bio-layer interferometry (Octet RED96), biotin-labelled PTPRD on super streptavidin biosensors, asprosin 1.23-900 nM in solution, 1:1 global fit
Procedure: as §1

[4] = target: T2, PTPRD extracellular domain, His-tagged …; assay: SPR (Biacore T200), PTPRD amine-coupled on CM5 chip, asprosin injected, steady-state analysis
Procedure: Surface plasmon resonance (SPR) studies were performed using Biacore T200 with PTPRD (Acro Biosystems, PTD-H52H9) covalently immobilized on an S series CM5 sensor chip via amine coupling. To avoid protein aggregation, […] used in SPR experiments were purified by gel filtration in a buffer containing 25 mM Tris-HCl (pH 8.0), 100 mM NaCl and 5 mM DTT, stored at 4° C., and used within 48 hr with minimum concentration process. Asprosin was injected in a series of concentrations from […] to 7.8125 nM was injected at 30 μl/min over the sensor chip at room temperature. Sensorgram traces subtracted with the reference and zero-concentration traces were analyzed using BIA Evaluation software (GE Healthcare Bio-Sciences). Nonlinear steady-state analysis was performed to compute Kd.

Kd [1]: 57 nM
Kd [2]: 4.2 nM
koff [3]: 0.000377 s⁻¹
kon [3]: 6610 M⁻¹ s⁻¹
Kd [4]: 36.8 nM
B1: recombinant human asprosin (ligand, UniProt P35555 2732-2871, looked up)
chain: STNETDASNIEDQSETEANVSLASWDVEKTAIFAFNISHVSNKVRILELLPALTTLTNHNRYLIESGNEDGFFKINQKEGISYLHFTKKKPVAGTYSLQISSTPLYKKKELNQLEDKYDKDYLSGELGDNLKMKIQVLLH
notes: domain: cleaved asprosin; Unlabelled analyte in SPR, MST and BLI, and the recombinant asprosin used in IP/MS, ELISA and slice electrophysiology; Only the BLI and ELISA methods call it human; also called rAsprosin; recombinant asprosin
